In the supplement of paper PMC10126150:
± gives the standard deviation of the averaged measurements.

System: ATP
Test: switch fluorescence ratio, 500 uM ATP over buffer (Cy3 cluster intensity, sum of 5 cycles each) (fold (ratio)); higher = stronger signal-on switching upon ATP binding; sequences stand for … in TCGTCGGCAGCGTCAGATGTGTATAAGAGACAGTTTTTTTTTTTTTTTTTTTTTTTTT…TC
Conditions: aptamer strand: ATP DNA aptamer (quencher-CACCTGGGGGAGTATTGCGGAGGAAGG + anchor), 100 nM annealed; ATP concentration: 500 uM
Summary of the method: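 Exposure to 500 uM ATP lasted 15 min at 22 °C before imaging, and a selection-buffer image was taken beforehand, for Cy3-labelled switching-strand clusters on a modified Illumina MiSeq flow-cell annealed to 100 nM quencher-labelled ATP aptamer. Five buffer/ATP cycles were run with NaOH stripping and re-annealing between them. The fluorescence ratio per cluster is summed target-cycle over summed buffer-cycle Cy3 intensity, averaged per switch-domain sequence. Clusters outside 100-1000 RFU were excluded.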

Row | Sequence | switch fluorescence ratio
1 | TTTTGGCGAC | 0.976 ± 0.027
2 | AAAAGGTTGT | 0.999 ± 0.038
3 | TAGGGACGCC | 1.031 ± 0.0046
4 | TTGCGACACC | 1.06 ± 0.042
5 | ACATATTACT | 1.13 ± 0.0066
6 | GCGGGAAAGG | 0.978 ± 0.012
7 | GATCATGCGG | 0.9854 ± 0.0089
8 | AGTGTATACT | 0.9886 ± 0.0021
9 | TAAAGGGTTA | 0.985 ± 0.014
10 | CCTCATCGAG | 1.07 ± 0.024
11 | GGGGTATGGT | 1 ± 0.036
12 | GATAGATAGA | 0.9957 ± 0.002
13 | TTCTTGCGCC | 1.076 ± 0.0073
14 | TTTCAGAAAG | 0.986 ± 0.011
15 | GATTGCGCAT | 1 ± 0.03
16 | GGTTGAGCGG | 0.993 ± 0.011
17 | CACTTAGGGC | 1.06 ± 0.024
18 | AGCAGACGGC | 1.03 ± 0.024
19 | TTCCTGTTTC | 1.01 ± 0.023
20 | CGCGGTTGAC | 1.12 ± 0.03
21 | CAACCTGAAC | 2.39 ± 0.2
22 | AATCCGGAAC | 1.92 ± 0.023
23 | CATGCTTTGT | 0.9924 ± 0.0069

Row | Sequence | switch fluorescence ratio
24 | AAAGGGAACA | 1.01 ± 0.019
25 | ATATGGTAGT | 1.03 ± 0.032
26 | GCAACCGGTC | 1.054 ± 0.0041
27 | GGGTTCGGAA | 0.9972 ± 0.0093
28 | GCTTCGGCCT | 1.02 ± 0.058
29 | GGGGTGGCCT | 1 ± 0.027
30 | TTCGGGATTT | 1.007 ± 0.0062
31 | GTCCTTTGCC | 1.06 ± 0.011
32 | GAATCAATGG | 1.03 ± 0.02
33 | ATGGTAAAAA | 1.05 ± 0.1
34 | CTTTATGTTT | 0.991 ± 0.015
35 | AGAAAATTCG | 0.981 ± 0.024
36 | TTATCGATTT | 0.995 ± 0.028
37 | GGCTTAATAG | 1.01 ± 0.033
38 | GACGGTAAAG | 0.996 ± 0.037
39 | GTGTACAAAT | 0.9896 ± 0.0041
40 | AGGAAAAAGC | 1.02 ± 0.028
41 | TGGATCACGG | 1.02 ± 0.0054
42 | GATTTCACTC | 1 ± 0.026
43 | CGGTTATGTA | 0.989 ± 0.034
44 | TATTTGGGCG | 1.053 ± 0.0059
45 | CGATATATTA | 0.9874 ± 0.0053
46 | ATAGTAGCTA | 0.9764 ± 0.0016

Row | Sequence | switch fluorescence ratio
47 | AGTAAAATT | 0.9865 ± 0.0036
48 | TTGATAACAA | 1.04 ± 0.036
49 | CATCCGTGGG | 1.75 ± 0.085
50 | TTAGTTTTTG | 0.98 ± 0.017
51 | GGAATCTGTA | 0.949 ± 0.022
52 | CGGAGTGTGC | 1.23 ± 0.047
53 | TTCAGGGGGT | 1.02 ± 0.054
54 | CTATAAAGTT | 0.979 ± 0.024
55 | GGGCAAACGA | 1.12 ± 0.025
56 | GAGGGCTCTT | 1.05 ± 0.029
57 | GACGGGGGTA | 1.04 ± 0.043
58 | AGGACTGTGT | 1.02 ± 0.04
59 | TGCATGGTGG | 0.995 ± 0.01
60 | GGAATCGGTC | 1 ± 0.051
61 | TTCTTGGACA | 0.993 ± 0.016
62 | ATATCATTCA | 1.01 ± 0.019
63 | TTAAACGGTA | 1.03 ± 0.029
64 | AATTGGTTAG | 0.984 ± 0.054
65 | GTCGGTATTT | 0.986 ± 0.03
66 | AGTTTGCCAG | 0.96403 ± 0.00025
67 | GGCAGCAAGT | 1.16 ± 0.013
68 | GGGACGAATC | 1.006 ± 0.0041
69 | TTGCTGGGGG | 1.01 ± 0.059

Row | Sequence | switch fluorescence ratio
70 | CACTGGTTAA | 0.995 ± 0.013
71 | TTCCGTTTTT | 1.51 ± 0.66
72 | ATGACTGGAG | 0.9896 ± 0.0076
73 | TTGAGGTCGT | 1.023 ± 0.0038
74 | CGTTTTTCGT | 0.9779 ± 0.0038
75 | TGCTTTGCCG | 1.09 ± 0.072
76 | TTCGGTGTGG | 1.01 ± 0.04
77 | TGGGTGGGGC | 0.997 ± 0.018
78 | AGGGTTATTA | 0.9786 ± 0.0025
79 | GCAGTATTTG | 0.99057 ± 2.4e-05
80 | TGGAGAAGGT | 1.02 ± 0.027
81 | AATAGACTT | 0.999 ± 0.013
82 | AGTTAGTTAG | 0.987 ± 0.011
83 | ATACCGGTTG | 1.02 ± 0.015
84 | GTGAGCTTGT | 1.02 ± 0.013
85 | ATGTTAGATT | 0.996 ± 0.029
86 | AAGACGGATT | 0.9945 ± 0.0066
87 | CTATGTATTG | 0.9695 ± 0.0096
88 | ACGAGATTAT | 1.02 ± 0.014
89 | CGGGGATTCC | 1.06 ± 0.031
90 | ATGCGGGGTC | 1.03 ± 0.053
91 | CATGAGATAC | 1.16 ± 0.022
92 | TTGAACGGGT | 1.07 ± 0.1

Row | Sequence | switch fluorescence ratio
93 | TGAGGGGGTG | 1 ± 0.029
94 | GGGTGATTGC | 0.964 ± 0.011
95 | AGGGAAGTCG | 0.9751 ± 0.0093
96 | CTGGGCACGT | 0.997 ± 0.023
97 | GCTAGGCCTT | 0.9957 ± 0.0082
98 | TTTGATTGGG | 1.01 ± 0.037
99 | TTTGTGCTTT | 1.01 ± 0.02
100 | AACTGGACTT | 1.11 ± 0.042
101 | GGAAGCGCTC | 1 ± 0.02
102 | GGATTAGGAG | 0.975 ± 0.011
103 | TATAACCTGT | 1.015 ± 0.0089
104 | TAGCAGTTGG | 0.988 ± 0.02
105 | GCCGGGCCGG | 0.9666 ± 0.0055
106 | GGGGTTACTG | 0.993 ± 0.034
107 | CCGGGGTTAG | 1.38 ± 0.42
108 | AGAGAGTTTA | 1.04 ± 0.021
109 | CATCCGAGGT | 1.14 ± 0.23
110 | ACTGGTCTCA | 1.002 ± 0.0098
111 | ACGGTTAGGG | 1.05 ± 0.043
112 | AGGATTTGGT | 0.984 ± 0.031
113 | TAACTAGGGG | 1.49 ± 0.042
114 | GGGACGGGTT | 0.974 ± 0.029
115 | GTAAGGGTTG | 0.961 ± 0.012

Row | Sequence | switch fluorescence ratio
116 | ATAATCCCGA | 1.02 ± 0.015
117 | TCGAAGGGGT | 0.982 ± 0.013
118 | TAGTGATGTT | 0.983 ± 0.018
119 | TTAAGATTCC | 1.1 ± 0.028
120 | GGTGAGAGTT | 0.956 ± 0.0087
121 | CAGGACTTAT | 1.02 ± 0.064
122 | GAAACTATTT | 1.03 ± 0.05
123 | GGGGTTTGGG | 0.974 ± 0.028
124 | ATTAACCATT | 1.01 ± 0.014
125 | GGTGCTGAAG | 1.01 ± 0.021
126 | GGTAGCTTGG | 1.13 ± 0.17
127 | AGGTAATGCA | 1.012 ± 0.0037
128 | CGATGGCGTT | 0.96 ± 0.016
129 | ATCTTAAATA | 0.9918 ± 0.0058
130 | GTAGAAACGC | 0.998 ± 0.01
131 | ACCTGGATTG | 1.03 ± 0.017
132 | GATAAGGGGT | 0.981 ± 0.035
133 | GGGGTTCAAT | 0.976 ± 0.044
134 | GCCGCCGTGT | 0.983 ± 0.031
135 | GACGACAGTC | 1.029 ± 0.0052
136 | GGGGGTAATT | 1.1 ± 0.052
137 | TTAGTGTCGA | 1.02 ± 0.04
138 | GTAATAATGG | 0.988 ± 0.053

Row | Sequence | switch fluorescence ratio
139 | TTGATCTGTT | 0.972 ± 0.021
140 | AACTTGGGGA | 0.9657 ± 0.0061
141 | TACCTGGTCG | 1.03 ± 0.041
142 | TTTAGGGAAT | 1 ± 0.013
143 | TCGGGTGGTT | 1 ± 0.016
144 | TGGGATGCAG | 1.01 ± 0.065
145 | CGTTATTGGC | 1.02 ± 0.034
146 | CATAAGGTAT | 0.999 ± 0.046
147 | ACGAACAGCG | 1.153 ± 0.004
148 | CTGGCGGATT | 0.985 ± 0.05
149 | CGGGGAAGGG | 1.005 ± 0.0032
150 | GGGTATAGTA | 0.973 ± 0.044
151 | TCGGGATTGA | 0.98 ± 0.013
152 | GCTGTAGAAG | 0.9951 ± 0.0056
153 | CTGGTTTATA | 0.962 ± 0.027
154 | CACCGGCTTT | 1.1 ± 0.14
155 | CTGTGGGTTC | 1 ± 0.016
156 | GCGTTAGGGT | 0.976 ± 0.027
157 | GGGGTGGATT | 0.974 ± 0.013
